Data as given in paper PMC6172425, “Structural basis of inactivation of human counterpart of mouse motor neuron degeneration 2 mutant in serine protease HtrA2” (Bioscience Reports, 2018).

Target: the molecule itself
Assay: SEC; Superdex S200 HR 10/300, 10 mM HEPES pH 8.0, 100 mM NaCl, protein ~20 mg/ml, 0.2 ml/min; calibrated with BSA, alcohol dehydrogenase, β-amylase

Row | Protein | binding result
1 | Recombinant mature (Δ133) human HtrA2 S276C (enzyme, UniProt O43464 134-458, looked up, human serine protease HtrA2, mature processed form (Δ133): the 458 amino acid precursor without its first 133 residues, with S276C; Made by site-directed mutagenesis of the wild-type construct in pET-20b; also called hHtrA2S276C; human counterpart of the mouse mnd2 mutant; source: E. coli Rosetta (DE3), purified (Ni-NTA, gel filtration)) AVPSPPPASPRSQYNFIADVVEKTAPAVVYIEILDRHPFLGREVPISNGSGFVVAADGLIVTNAHVVADRRRVRVRLLSGDTYEAVVTAVDPVADIATLRIQTKEPLPTLPLGRSADVRQGEFVVAMGSPFALQNTITSGIVCSAQRPARDLGLPQTNVEYIQTDAAIDFGNSGGPLVNLDGEVIGVNTMKVTAGISFAIPSDRLREFLHRGEKKNSSSGISGSQRRYIGVMMLTLSPSILAELQLREPSFPDVQHGVLIHKVILGSPAHRAGLRPGDVILAIGEQMVQNAEDVYEAVRTQSQLAVQIRRGRETLTLYVTPEVTE | binds
2 | Recombinant mature (Δ133) human HtrA2, wild type (enzyme, UniProt O43464 134-458, looked up, human serine protease HtrA2, mature processed form (Δ133): the 458 amino acid precursor without its first 133 residues, N-terminus AVPS; In pET-20b; PDB 1LCY is the S306A form of the mature protein; also called wt hHtrA2; hHtrA2; source: E. coli Rosetta (DE3), purified (Ni-NTA)) AVPSPPPASPRSQYNFIADVVEKTAPAVVYIEILDRHPFLGREVPISNGSGFVVAADGLIVTNAHVVADRRRVRVRLLSGDTYEAVVTAVDPVADIATLRIQTKEPLPTLPLGRSADVRQGEFVVAMGSPFALQNTITSGIVSSAQRPARDLGLPQTNVEYIQTDAAIDFGNSGGPLVNLDGEVIGVNTMKVTAGISFAIPSDRLREFLHRGEKKNSSSGISGSQRRYIGVMMLTLSPSILAELQLREPSFPDVQHGVLIHKVILGSPAHRAGLRPGDVILAIGEQMVQNAEDVYEAVRTQSQLAVQIRRGRETLTLYVTPEVTE | binds
